Experimental data taken from PMC10837013, “Synergistic induction of phytoalexins in Nicotiana attenuata by jasmonate and ethylene signaling mediated by NaWRKY70”.

Biological target: T1, NaWRKY70 (Nicotiana attenuata, UniProt A0A1J6IGI0 1-225)
T1 chain: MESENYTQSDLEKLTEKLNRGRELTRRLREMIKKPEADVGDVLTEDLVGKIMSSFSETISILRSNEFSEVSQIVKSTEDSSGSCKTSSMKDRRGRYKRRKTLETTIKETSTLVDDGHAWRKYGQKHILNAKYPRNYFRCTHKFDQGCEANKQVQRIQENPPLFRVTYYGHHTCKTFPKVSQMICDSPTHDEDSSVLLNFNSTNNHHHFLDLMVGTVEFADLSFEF
Assay: EMSA; Chemiluminescence EMSA kit (Beyotime), manufacturer's protocol; buffer, salt, pH and temperature not stated
Settings: protein: recombinant; tags: GST (pGEX-4T-1); chain copies: 0; label: biotin

B1: NaF6'H1 mProbe 1 (dsDNA)
DNA 1: GGTCTCTTTAGCTCTACCAACTATTC
DNA 2: GAATAGTTGGTAGAGCTAAAGAGACC
B1: no binding.
